# Source: patent US20050058983A1
# Target: HIVSF162 Env on pseudotyped virions (HIV-1 SF162) (UniProt P19550)
# Experiment: cell-based or functional assay
substance,measurement,value
human Mab 697D (antibody),ND50,80 µg/mL
